According to the array DNA melting data of Ke et al.:

Assay: melting temperature; melt of duplexes
Conditions: sodium 0.0675 M; strand 1 µM

Substance	Tm
CGACGTGCACTATGTGCTG+CAGCACATGCGGCACGTCG ((((((((...((((((((+))))))))...))))))))	43.3 °C
CGACGTGCGGAATGTGCTG+CAGCACATCTCGCACGTCG (((((((((..((((((((+))))))))..)))))))))	55.3 °C
CGACGTGCCGCATGTGCTG+CAGCACATAAAGCACGTCG ((((((((...((((((((+))))))))...))))))))	50.1 °C
CGACGTGCGATATGTGCTG+CAGCACATCGAGCACGTCG ((((((((...((((((((+))))))))...))))))))	53.6 °C
CGACGTGCCCTATGTGCTG+CAGCACATTATGCACGTCG ((((((((...((((((((+))))))))...))))))))	48 °C
CGACGTGCTTAATGTGCTG+CAGCACATCATGCACGTCG ((((((((.(.((((((((+)))))))).).))))))))	50.3 °C
CGACGTGCGTTATGTGCTG+CAGCACATTACGCACGTCG ((((((((((.((((((((+)))))))).))))))))))	58.6 °C
CGACGTGCCAAATGTGCTG+CAGCACATTTCGCACGTCG ((((((((.((((((((((+)))))))))).))))))))	54.1 °C
CGACGTGCCTGATGTGCTG+CAGCACATCGGGCACGTCG (((((((((.(((((((((+))))))))).)))))))))	61.7 °C
CGACGTGCGGTATGTGCTG+CAGCACATACGGCACGTCG ((((((((.((((((((((+)))))))))).))))))))	58.5 °C
CGACGTGCGGGATGTGCTG+CAGCACATTATGCACGTCG ((((((((...((((((((+))))))))...))))))))	51.8 °C
CGACGTGCCTAATGTGCTG+CAGCACATCCTGCACGTCG ((((((((...((((((((+))))))))...))))))))	47.9 °C
CGACGTGCAGTATGTGCTG+CAGCACATACTGCACGTCG (((((((((((((((((((+)))))))))))))))))))	62.7 °C
CGACGTGCCGTATGTGCTG+CAGCACATACTGCACGTCG ((((((((.((((((((((+)))))))))).))))))))	56.9 °C
CGACGTGCGGCATGTGCTG+CAGCACATCGCGCACGTCG (((((((((..((((((((+))))))))..)))))))))	55.2 °C
CGACGTGCCGGATGTGCTG+CAGCACATGAAGCACGTCG ((((((((...((((((((+))))))))...))))))))	49.9 °C
CGACGTGCGAAATGTGCTG+CAGCACATGCCGCACGTCG (((((((((..((((((((+))))))))..)))))))))	56 °C
CGACGTGCCACATGTGCTG+CAGCACATCTCGCACGTCG ((((((((.(.((((((((+)))))))).).))))))))	46.8 °C

Substance	Tm
CGACGTGCCCGATGTGCTG+CAGCACATTCGGCACGTCG (((((((((..((((((((+))))))))..)))))))))	54.9 °C
CGACGTGCTCGATGTGCTG+CAGCACATCAAGCACGTCG (((((((((.(((((((((+))))))))).)))))))))	57.2 °C
CGACGTGCGCGATGTGCTG+CAGCACATCCCGCACGTCG (((((((((.(((((((((+))))))))).)))))))))	59.2 °C
CGACGTGCCGCATGTGCTG+CAGCACATCGAGCACGTCG ((((((((...((((((((+))))))))...))))))))	54.5 °C
CGACGTGCGTAATGTGCTG+CAGCACATAGGGCACGTCG ((((((((...((((((((+))))))))...))))))))	51.1 °C
CGACGTGCACGATGTGCTG+CAGCACATGTAGCACGTCG ((((((((...((((((((+))))))))...))))))))	48.7 °C
CGACGTGCAGTATGTGCTG+CAGCACATACCGCACGTCG ((((((((.((((((((((+)))))))))).))))))))	55.7 °C
CGACGTGCTCTATGTGCTG+CAGCACATTTAGCACGTCG (((((((((..((((((((+))))))))..)))))))))	51 °C
CGACGTGCGGAATGTGCTG+CAGCACATCCAGCACGTCG ((((((((.(.((((((((+)))))))).).))))))))	55.1 °C
CGACGTGCGCGATGTGCTG+CAGCACATTGAGCACGTCG ((((((((.(.((((((((+)))))))).).))))))))	56.8 °C
CGACGTGCCCGATGTGCTG+CAGCACATCCTGCACGTCG ((((((((..(((((((((+)))))))))..))))))))	52.5 °C
CGACGTGCAGTATGTGCTG+CAGCACATATGGCACGTCG ((((((((..(((((((((+)))))))))..))))))))	52.7 °C
CGACGTGCCAAATGTGCTG+CAGCACATGCCGCACGTCG ((((((((...((((((((+))))))))...))))))))	50.6 °C
CGACGTGCTGAATGTGCTG+CAGCACATAACGCACGTCG ((((((((...((((((((+))))))))...))))))))	50 °C
CGACGTGCGAAATGTGCTG+CAGCACATTGCGCACGTCG (((((((((.(((((((((+))))))))).)))))))))	60.2 °C
CGACGTGCTACATGTGCTG+CAGCACATAGGGCACGTCG ((((((((...((((((((+))))))))...))))))))	50.8 °C
CGACGTGCCATATGTGCTG+CAGCACATCGTGCACGTCG ((((((((...((((((((+))))))))...))))))))	44.2 °C
CGACGTGCCAGATGTGCTG+CAGCACATGCGGCACGTCG (((((((((..((((((((+))))))))..)))))))))	54.6 °C
